Measured values published in paper PMC5801593 (Frontiers in Molecular Biosciences, 2017).

B1: IscX (natural protein, E. coli, UniProt P0C0L9 1-66, looked up)
chain: MGLKWTDSREIGEALYDAYPDLDPKTVRFTDMHQWICDLEDFDDDPQASNEKILEAILLVWLDEAE
modifications: also: mixed disulfide with β-mercaptoethanol on majority of protein, most likely
notes: IscX (YfhJ) of E. coli; Predicted mass 7859 Da, observed 7935 Da; the predicted mass may include some; also called YfhJ; source: E. coli BL21(DE3), purified (Ni-NTA, TEV cleavage, gel filtration)
B2: biotinylated CyaY (natural protein, E. coli, UniProt P27838 1-106, looked up)
chain: MNDSEFHRLADQLWLTIEERLDDWDGDSDIDCEINGGVLTITFENGSKIIINRQEPLHQVWLATKQGGYHFDLKGDEWICDRSGETFWDLLEQAATQQAGETVSFR
modifications: biotin (site not stated)
notes: CyaY, frataxin ortholog of E. coli; Same protein as m3, biotinylated to hold it on streptavidin biosensors; also called immobilized CyaY; source: E. coli BL21(DE3), purified (Ni-NTA, TEV cleavage, gel filtration), biotinylated

Key:
Conditions in all cases: both partners purified
[1] = biological target: T1, IscU-IscS complex (immobilized IscS saturated with IscU) (E. coli, UniProt P0A6B7 1-404; P0ACD4 2-128, biotin (site not stated)); experiment: BLI; IscS immobilised and saturated by IscU (10 μM), titrated with IscX 0-60 μM; apparent Kd, 1:1 model
T1 construct: IscS, cysteine desulfurase of E. coli; as the chain of m7; IscU of E. coli; as the chain of m4; also called IscS saturated by IscU; source: formed on the biosensor from purified E. coli-made proteins: immobilized IscS saturated by IscU (10 μM); copies: 2 +

biotinylated IscS = biological target: T2, biotinylated IscS (E. coli, UniProt P0A6B7 1-404, biotin (site not stated)); experiment: BLI; biotinylated IscS immobilised on streptavidin biosensors, IscX 0-50 μM; 20 mM HEPES pH 7.5, 150 mM NaCl, 2 mM TCEP, 0.5 mg/mL BSA, 25°C; apparent Kd, 1:1 model; data not shown
T2 construct: IscS, cysteine desulfurase of E. coli; Same protein as m1, biotinylated to hold it on streptavidin biosensors; also called immobilized IscS; source: E. coli BL21(DE3), purified (Ni-NTA, TEV cleavage, gel filtration), biotinylated

[2] = biological target: T3, cysteine desulfurase IscS (E. coli, UniProt P0A6B7 1-404); experiment: native MS; ESI-MS under non-denaturing conditions; IscS 3 μM in 250 mM ammonium acetate pH 8, IscX at 0-16 IscX/IscS molar ratios, 5 min at room temperature; sequential binding model (DynaFit)
T3 construct: IscS, cysteine desulfurase of E. coli; Dimer by native MS (observed 91,035 Da, predicted 91,037 Da); An adduct of about +304 Da is put down to beta-mercaptoethanol hetero-disulfides; also called wild-type IscS; source: E. coli BL21(DE3), purified (Ni-NTA, TEV cleavage, gel filtration)

[3] = biological target: T3, cysteine desulfurase IscS; experiment: BLI; competition: biotinylated CyaY immobilised on streptavidin biosensors, exposed to 10 μM IscS at IscX 0-60 μM; 20 mM HEPES pH 7.5, 150 mM NaCl, 2 mM TCEP, 0.5 mg/mL BSA, 25°C; apparent Kd from the response reduction, 1:1 model

Binder	Kd [1] [µM]	Kd (biotinylated IscS) [µM]	Kd of the first two IscX per IscS dimer (primary site) [2] [µM]	Kd of the third and fourth IscX per IscS dimer (secondary site) [2] [µM]	stoichiometry N [2] [IscX per IscS dimer]	Kd [3] [µM]	binding result [3]
B1	8 ± 2	8 ± 3	13.7 ± 0.4	170 ± 10	≤ 4	6 ± 2	
B2							binds
